Key:
[1] = target: human epidermal growth factor receptor, endogenous in HEp-2 cells (human (endogenous in HEp-2)) (UniProt P00533)
[2] = target: human epidermal growth factor receptor, endogenous in HEp-2 cells (human (endogenous in HEp-2)) (UniProt P00533); remark: listed apart in the source

Pmp21 on the surface of C. pneumoniae elementary bodies (from UniProt Q9Z6U5 31-1609) (natural protein)
infectivity of C. pneumoniae for HEp-2 cells pretreated 2 h with cetuximab [1]: 54 % reduction | infectivity of C. pneumoniae for cells preincubated 2 h with EGF [2]: 47 % reduction
